Test results: the supplement of paper PMC7877785
± gives the uncertainty stated by the source.

Assay: self-splicing fitness, log relative to wild type (ln ratio); higher = more splicing; Tetrahymena group I intron in knt gene, E. coli kanamycin selection, DiMSum; sequences stand for … in CUCUCU…GGAGGGAAAAGUUAUCAGGCAUGCACCUGGUAGCUAGUCUUUAAACCAAUAGAUUGCAUCGGUUUAAAAGGCAAGACCGUCAAAUUGCGGGAAAGGGGUCAACAGCCGUUCAGUACCAAGUCUCAGGGGAAACUUUGAGAUGGCCUUGCAAAGGGUAUGGUAAUAAGCUGACGGACAUGGUCCUAACCACGCAGCCAAGUCCUAAGUCAACAGAUCUUCUGUUGAUAUGGAUGCAGUUCACAGACUAAAUGUCGGUCGGGGAAGAUGUAUUCUUCUCAUAAGAUAUAGUCGGACCUCUCCUUAAUGGGAGCUAGCGGAUGAAGUGAUGCAACACUGGAGCCGCUGGGAACUAAUUUGUAUGCGAAAGUAUAUUGAUUAGUUUUGGAGUACUCGUGGUCG
Method in brief: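 The eight P1ex-region nucleotides of an intron in the knt kanamycin-resistance gene on pET-22b(+) were all randomised and the library put into E. coli BL21(DE3). Six replicate transformations were grown overnight at 37°C or 30°C on LB agar with or without 25 μg/mL kanamycin, together with 100 μg/mL carbenicillin, 50 μM IPTG and 0.2% rhamnose. Colonies were pooled and amplicon-sequenced on an Illumina HiSeq 2500. Fitness from DiMSum is the error-weighted combination of wild-type-normalised replicate fold changes, kanamycin over none.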

| Sequence | self-splicing fitness (ln) (30 °C) | self-splicing fitness (ln) (37 °C) |
| --- | --- | --- |
| AGGGAGCAAUAUUACGUCUU | -2.53 ± 0.15 | -0.226 ± 0.15 |
| AGGGAGCAAUAUUACGUGUU | -2.63 ± 0.31 | -1.73 ± 0.29 |
| AGGUAGCAAUAUUACGAAAG | -3.732 ± 0.036 | -2.49 ± 0.045 |
| AGGUAGCAAUAUUACGAAGA | -2.84 ± 0.03 | -1.83 ± 0.038 |
| AGGUAGCAAUAUUACGACAC | -0.582 ± 0.018 | -0.427 ± 0.036 |
| AGGUAGCAAUAUUACGACCG | -0.101 ± 0.02 | 0.197 ± 0.039 |
| AGGUAGCAAUAUUACGCAAC | -3.73 ± 0.042 | -2.61 ± 0.049 |
| AGGUAGCAAUAUUACGCGCG | -0.525 ± 0.016 | -0.215 ± 0.035 |
| AGGUAGCAAUAUUACGCGGG | -3.612 ± 0.026 | -2.38 ± 0.037 |
| AGGUAGCAAUAUUACGCGUA | -1.22 ± 0.017 | -0.701 ± 0.034 |
| AGGUAGCAAUAUUACGCUGC | -3.88 ± 0.042 | -2.79 ± 0.054 |
| AGGUAGCAAUAUUACGGACU | 0.0184 ± 0.014 | 0.271 ± 0.033 |
| AGGUAGCAAUAUUACGGCCG | -0.244 ± 0.018 | 0.0571 ± 0.038 |
| AGGUAGCAAUAUUACGGGAU | -2.755 ± 0.02 | -1.49 ± 0.034 |
| AGGUAGCAAUAUUACGGGCA | -0.941 ± 0.017 | -0.414 ± 0.034 |
| AGGUAGCAAUAUUACGGGCC | -1.74 ± 0.024 | -1.5 ± 0.041 |
| AGGUAGCAAUAUUACGGGGA | -3.342 ± 0.031 | -2.42 ± 0.039 |
| AGGUAGCAAUAUUACGGGGU | -3.984 ± 0.027 | -2.94 ± 0.038 |
| AGGUAGCAAUAUUACGGGUU | -2.347 ± 0.017 | -1.72 ± 0.035 |
| AGGUAGCAAUAUUACGGUAG | -3.883 ± 0.03 | -2.99 ± 0.042 |
| AGGUAGCAAUAUUACGUAAG | -2.267 ± 0.017 | -1.25 ± 0.034 |
| AGGUAGCAAUAUUACGUACA | -0.927 ± 0.016 | -0.257 ± 0.034 |
| AGGUAGCAAUAUUACGUACG | -1.19 ± 0.015 | -0.48 ± 0.034 |
| AGGUAGCAAUAUUACGUGAU | -2.479 ± 0.016 | -1.53 ± 0.034 |
| AGGUAGCAAUAUUACGUUCG | -0.889 ± 0.014 | -0.42 ± 0.034 |

| Sequence | self-splicing fitness (ln) (30 °C) | self-splicing fitness (ln) (37 °C) |
| --- | --- | --- |
| AGGUAGCAAUAUUACGUUGG | -3.813 ± 0.028 | -2.95 ± 0.041 |
| AGUAAGCAAUAUUACGACGA | -1.15 ± 0.073 | -0.782 ± 0.079 |
| AGUAAGCAAUAUUACGAGAU | -3.09 ± 0.15 | -0.575 ± 0.16 |
| AGUAAGCAAUAUUACGAGGA | -2.06 ± 0.33 | -2.55 ± 0.49 |
| AGUAAGCAAUAUUACGAUAU | -1.95 ± 0.13 | -0.493 ± 0.15 |
| AGUAAGCAAUAUUACGAUUA | -0.948 ± 0.082 | 0.25 ± 0.092 |
| AGUAAGCAAUAUUACGAUUC | -1.31 ± 0.14 | -0.96 ± 0.22 |
| AGUAAGCAAUAUUACGCAAU | -2.52 ± 0.14 | -1.17 ± 0.16 |
| AGUAAGCAAUAUUACGCACA | -0.655 ± 0.082 | -0.356 ± 0.091 |
| AGUAAGCAAUAUUACGCAGU | -4.13 ± 0.17 | -2.98 ± 0.19 |
| AGUAAGCAAUAUUACGCGAU | -3.74 ± 0.18 | -2.29 ± 0.18 |
| AGUAAGCAAUAUUACGCGCU | -2.64 ± 0.28 | -2.1 ± 0.4 |
| AGUAAGCAAUAUUACGCGUG | -3.44 ± 0.2 | -1.46 ± 0.16 |
| AGUAAGCAAUAUUACGCGUU | -3.44 ± 0.17 | -2.8 ± 0.19 |
| AGUAAGCAAUAUUACGCUAA | -2.36 ± 0.17 | -2.3 ± 0.19 |
| AGUAAGCAAUAUUACGGCAU | -0.486 ± 0.11 | -0.411 ± 0.12 |
| AGUAAGCAAUAUUACGGCCA | -0.532 ± 0.14 | -0.74 ± 0.16 |
| AGUAAGCAAUAUUACGGCUA | 0.0253 ± 0.081 | 0.0684 ± 0.094 |
| AGUAAGCAAUAUUACGGGCU | -1.28 ± 0.12 | -1.6 ± 0.17 |
| AGUAAGCAAUAUUACGGGGA | -3.89 ± 0.31 | -2.3 ± 0.3 |
| AGUAAGCAAUAUUACGUAGG | -3.99 ± 0.19 | -3.09 ± 0.22 |
| AGUAAGCAAUAUUACGUCAG | – | -2.58 ± 0.3 |
| AGUAAGCAAUAUUACGUGAC | – | -2.19 ± 0.2 |
| AGUAAGCAAUAUUACGUUGA | -3.1 ± 0.23 | -2.1 ± 0.24 |
| AGUAAGCAAUAUUACGUUUC | -3.78 ± 0.23 | -1.37 ± 0.21 |

| Sequence | self-splicing fitness (ln) (30 °C) | self-splicing fitness (ln) (37 °C) |
| --- | --- | --- |
| AGUCAGCAAUAUUACGAAAC | – | -1.45 ± 0.28 |
| AGUCAGCAAUAUUACGAAGG | -1.27 ± 0.08 | -1.46 ± 0.12 |
| AGUCAGCAAUAUUACGAAUA | -0.962 ± 0.2 | -1.22 ± 0.17 |
| AGUCAGCAAUAUUACGACAU | 0.0908 ± 0.012 | -0.0465 ± 0.032 |
| AGUCAGCAAUAUUACGCAAC | -1.65 ± 0.18 | -1.22 ± 0.21 |
| AGUCAGCAAUAUUACGCAGU | -1.89 ± 0.23 | -0.11 ± 0.17 |
| AGUCAGCAAUAUUACGCAUA | -2.09 ± 0.13 | -0.502 ± 0.12 |
| AGUCAGCAAUAUUACGCGAC | -2.59 ± 0.26 | -3.14 ± 0.35 |
| AGUCAGCAAUAUUACGCGUC | -2.65 ± 0.23 | -0.977 ± 0.23 |
| AGUCAGCAAUAUUACGCUGA | -2.55 ± 0.19 | -2.24 ± 0.22 |
| AGUCAGCAAUAUUACGGAUC | -0.312 ± 0.11 | -0.438 ± 0.2 |
| AGUCAGCAAUAUUACGGAUU | -2.25 ± 0.14 | -1.42 ± 0.11 |
| AGUCAGCAAUAUUACGGCUA | -0.605 ± 0.14 | -0.512 ± 0.13 |
| AGUCAGCAAUAUUACGGGCC | -2.98 ± 0.28 | -2.4 ± 0.35 |
| AGUCAGCAAUAUUACGGGUG | -1.82 ± 0.084 | -0.948 ± 0.12 |
| AGUCAGCAAUAUUACGGUCG | 0.451 ± 0.089 | 0.0344 ± 0.12 |
| AGUCAGCAAUAUUACGGUGU | -1.32 ± 0.075 | -0.39 ± 0.1 |
| AGUCAGCAAUAUUACGGUUG | -2.76 ± 0.12 | -2.8 ± 0.17 |
| AGUCAGCAAUAUUACGGUUU | -0.329 ± 0.065 | -0.197 ± 0.08 |
| AGUCAGCAAUAUUACGUGGG | -4.29 ± 0.21 | -2.44 ± 0.14 |
| AGUCAGCAAUAUUACGUUAA | -3.47 ± 0.18 | -1.77 ± 0.12 |
| AGUCAGCAAUAUUACGUUGU | -3.18 ± 0.12 | -2.87 ± 0.18 |
| AGUGAGCAAUAUUACGAACA | -1.77 ± 0.18 | -0.734 ± 0.15 |
| AGUGAGCAAUAUUACGAACU | -2.3 ± 0.18 | -2.58 ± 0.33 |
| AGUGAGCAAUAUUACGAAUC | – | -1.49 ± 0.38 |

| Sequence | self-splicing fitness (ln) (30 °C) | self-splicing fitness (ln) (37 °C) |
| --- | --- | --- |
| AGUGAGCAAUAUUACGACCA | -1.79 ± 0.26 | -1.52 ± 0.48 |
| AGUGAGCAAUAUUACGACGA | -2.44 ± 0.21 | -1.13 ± 0.24 |
| AGUGAGCAAUAUUACGAGCG | -0.459 ± 0.1 | -0.0795 ± 0.13 |
| AGUGAGCAAUAUUACGAGGC | -3.83 ± 0.33 | -1.45 ± 0.17 |
| AGUGAGCAAUAUUACGAUUU | -2.6 ± 0.24 | -1.12 ± 0.22 |
| AGUGAGCAAUAUUACGCACG | -1.58 ± 0.18 | -0.941 ± 0.17 |
| AGUGAGCAAUAUUACGCGGA | -2.28 ± 0.3 | -1.99 ± 0.23 |
| AGUGAGCAAUAUUACGCGGG | – | -2.1 ± 0.37 |
| AGUGAGCAAUAUUACGCUGC | -2.29 ± 0.46 | -2.44 ± 0.44 |
| AGUGAGCAAUAUUACGCUGU | -3.12 ± 0.25 | -1.64 ± 0.18 |
| AGUGAGCAAUAUUACGGAUU | -3.48 ± 0.26 | -1.28 ± 0.21 |
| AGUGAGCAAUAUUACGGGAC | -4.1 ± 0.47 | – |
| AGUGAGCAAUAUUACGGGGA | -3.7 ± 0.25 | -2 ± 0.21 |
| AGUGAGCAAUAUUACGGGUC | -3.17 ± 0.28 | -3.06 ± 0.43 |
| AGUGAGCAAUAUUACGGUUA | -2.29 ± 0.23 | -2.48 ± 0.2 |
| AGUGAGCAAUAUUACGGUUC | -2.21 ± 0.26 | -1.7 ± 0.38 |
| AGUGAGCAAUAUUACGUCCC | 0.506 ± 0.48 | 0.283 ± 0.36 |
| AGUGAGCAAUAUUACGUCUA | -2.45 ± 0.27 | -1.41 ± 0.2 |
| AGUGAGCAAUAUUACGUCUC | – | -2.46 ± 0.36 |
| AGUGAGCAAUAUUACGUGAC | -2.02 ± 0.35 | -2.39 ± 0.32 |
| AGUUAGCAAUAUUACGACCA | -0.921 ± 0.093 | -0.258 ± 0.13 |
| AGUUAGCAAUAUUACGAGCA | -0.518 ± 0.11 | -0.169 ± 0.12 |
